# Reference: patent US20190321483A1 (Novartis, published 2019)
# T1: Mouse cKIT ECD, C-terminal 6x His (Sino Biological Inc, Catalog number 50530-M08H) (mouse, UniProt P05532 25-527)
# T1 construct: extracellular domain
# T1 sequence: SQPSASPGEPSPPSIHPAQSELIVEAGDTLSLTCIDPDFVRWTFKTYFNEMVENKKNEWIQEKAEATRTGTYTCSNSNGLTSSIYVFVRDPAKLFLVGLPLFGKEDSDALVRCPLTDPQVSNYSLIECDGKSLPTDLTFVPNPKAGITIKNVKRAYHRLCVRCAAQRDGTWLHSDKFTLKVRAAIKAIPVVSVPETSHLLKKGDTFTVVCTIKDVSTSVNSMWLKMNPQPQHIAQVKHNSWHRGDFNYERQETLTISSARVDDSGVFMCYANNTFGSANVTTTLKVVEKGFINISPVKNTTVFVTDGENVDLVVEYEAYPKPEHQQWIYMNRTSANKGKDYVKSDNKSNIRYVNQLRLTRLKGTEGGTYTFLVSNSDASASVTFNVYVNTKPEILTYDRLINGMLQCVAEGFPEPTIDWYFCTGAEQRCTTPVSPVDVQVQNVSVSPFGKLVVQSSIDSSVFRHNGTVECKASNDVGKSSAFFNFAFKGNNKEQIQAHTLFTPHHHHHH
# T2: Rat cKIT D1-5, C-terminal mFc (rat)
# T2 construct: also called rat cKIT-mFc
# T2 chain: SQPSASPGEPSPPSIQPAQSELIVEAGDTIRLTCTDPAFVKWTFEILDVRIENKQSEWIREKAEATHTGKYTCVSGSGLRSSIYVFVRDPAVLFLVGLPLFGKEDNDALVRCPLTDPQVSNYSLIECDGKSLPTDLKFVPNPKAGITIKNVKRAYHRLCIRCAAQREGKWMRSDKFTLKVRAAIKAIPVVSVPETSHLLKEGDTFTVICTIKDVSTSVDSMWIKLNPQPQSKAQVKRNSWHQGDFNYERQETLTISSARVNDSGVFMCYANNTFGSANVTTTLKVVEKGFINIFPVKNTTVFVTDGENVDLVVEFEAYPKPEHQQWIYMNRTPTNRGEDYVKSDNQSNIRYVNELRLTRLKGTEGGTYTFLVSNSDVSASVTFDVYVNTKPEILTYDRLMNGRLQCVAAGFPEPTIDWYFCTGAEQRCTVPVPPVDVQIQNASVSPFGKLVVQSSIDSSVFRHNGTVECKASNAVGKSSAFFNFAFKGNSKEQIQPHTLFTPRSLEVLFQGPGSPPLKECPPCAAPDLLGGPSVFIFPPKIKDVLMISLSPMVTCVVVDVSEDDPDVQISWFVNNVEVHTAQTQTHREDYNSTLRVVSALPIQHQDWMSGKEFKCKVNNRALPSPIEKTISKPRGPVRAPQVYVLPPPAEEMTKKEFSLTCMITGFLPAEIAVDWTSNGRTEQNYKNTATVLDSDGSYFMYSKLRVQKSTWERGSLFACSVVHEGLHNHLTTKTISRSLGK
# T3: Cynomolgus monkey cKIT D1-5 (cynomolgus monkey, UniProt P10721 26-524 (human entry))
# T3 construct: also called cyno cKIT ECD
# T3 chain: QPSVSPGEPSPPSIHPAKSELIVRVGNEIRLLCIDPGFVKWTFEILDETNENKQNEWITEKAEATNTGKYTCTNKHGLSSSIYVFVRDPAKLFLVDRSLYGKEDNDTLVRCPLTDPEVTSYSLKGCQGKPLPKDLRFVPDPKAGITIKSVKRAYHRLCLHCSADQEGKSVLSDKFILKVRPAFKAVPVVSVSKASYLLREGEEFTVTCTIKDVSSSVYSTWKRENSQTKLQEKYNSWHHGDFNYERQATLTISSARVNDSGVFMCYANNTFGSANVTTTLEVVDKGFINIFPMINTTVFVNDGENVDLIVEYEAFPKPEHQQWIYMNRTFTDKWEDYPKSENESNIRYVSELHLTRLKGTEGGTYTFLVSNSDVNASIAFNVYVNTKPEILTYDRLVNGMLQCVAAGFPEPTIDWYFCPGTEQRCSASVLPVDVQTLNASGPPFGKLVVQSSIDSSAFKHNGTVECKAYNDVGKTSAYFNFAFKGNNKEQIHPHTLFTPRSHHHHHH
# Experiments:
# [1] = target: T1, Mouse cKIT ECD, C-terminal 6x His (Sino …); assay: cross reactivity, Table 6 (Example 4: Biacore SPR, antibody captured by anti-human Fc, cKIT ECD in solution)
# [2] = target: T2, Rat cKIT D1-5, C-terminal mFc; assay: as above
# [3] = target: T4, Human cKIT D1-5 (extracellular domain) (human, UniProt P10721 26-524); assay: 'in SET' by the column head; Example 4 describes Biacore SPR (antibody captured by anti-human Fc, cKIT ECD in solution)
# T4 construct: also called human cKIT ECD; full-length cKIT ECD
# [4] = target: T3, Cynomolgus monkey cKIT D1-5; assay: as above
# [5] = target: T2, Rat cKIT D1-5, C-terminal mFc; assay: cross reactivity, Table 6 (Example 4: Biacore SPR, antibody captured, cKIT ECD in solution)
# T4 sequence (P10721 other isoform, or with tags, fused parts or gaps): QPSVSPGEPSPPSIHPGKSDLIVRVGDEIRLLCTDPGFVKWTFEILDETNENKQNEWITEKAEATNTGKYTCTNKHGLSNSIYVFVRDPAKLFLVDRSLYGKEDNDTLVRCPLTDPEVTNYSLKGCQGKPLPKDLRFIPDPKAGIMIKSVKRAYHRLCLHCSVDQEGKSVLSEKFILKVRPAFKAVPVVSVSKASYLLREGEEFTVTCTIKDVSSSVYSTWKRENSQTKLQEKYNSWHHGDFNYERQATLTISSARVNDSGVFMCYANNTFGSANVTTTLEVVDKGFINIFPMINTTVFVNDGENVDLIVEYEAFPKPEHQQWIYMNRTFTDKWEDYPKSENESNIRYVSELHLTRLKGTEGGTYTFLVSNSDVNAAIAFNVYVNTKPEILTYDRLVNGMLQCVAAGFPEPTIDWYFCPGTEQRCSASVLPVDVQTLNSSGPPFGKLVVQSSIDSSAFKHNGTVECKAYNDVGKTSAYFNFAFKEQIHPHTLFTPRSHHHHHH
Binder,binding result [1],binding result [2],Kd [3] [nM],Kd [4] [nM],binding result [5]
"Anti-cKIT Ab5 (antibody, human IgG1, lambda, V domains shown, Full-length human IgG1, lambda light chain) VH: QVQLVQSGAEVKKPGESLKISCKGSGYSFTNYWIAWVRQMPGKGLEWMGIIYPSNSYTLYSPSFQGQVTISADKSISTAYLQWSSLKASDTAMYYCARVPPGGSISYPAFDHWGQGTLVTVSS VL: DIELTQPPSVSVSPGQTASITCSGDNIGSIYASWYQQKPGQAPVLVIYRDNKRPSGIPERFSGSNSGNTATLTISGTQAEDEADYYCSVTDMEQHSVFGGGTKLTVLG",,,0.11,0.18,binds
"Anti-cKIT Ab4 (antibody, human IgG1, lambda, V domains shown, Full-length human IgG1, lambda light chain; also called IgG control for J4) VH: QVQLQQSGPGLVKPSQTLSLTCAISGDSVSTNSAAWNWIRQSPSRGLEWLGRIYYRSQWLNDYAVSVKSRITINPDTSKNQFSLQLNSVTPEDTAVYYCARQLTYPYTVYHKALDVWGQGTLVTVSS VL: DIELTQPPSVSVSPGQTASITCSGDNLGDQYVSWYQQKPGQAPVLVIYDDTDRPSGIPERFSGSNSGNTATLTISGTQAEDEADYYCQSTDSKSVVFGGGTKLTVLG",,,2.4,0.14,binds

# These reach a lower Kd [3]. Values come first.
binding result [1],binding result [2],Kd [3] [nM],Kd [4] [nM],binding result [5],Binder
no binding,no binding,0.094,0.17,,"Anti-cKIT Ab1 (antibody, human IgG1, kappa, V domains shown, Full-length human IgG1, kappa light chain; also called IgG control for J1) VH: QVQLVQSGAEVKKPGSSVKVSCKASGGTFSSYAISWVRQAPGQGLEWMGVIFPAEGAPGYAQKFQGRVTITADESTSTAYMELSSLRSEDTAVYYCARGGYISDFDVWGQGTLVTVSS VL: DIQMTQSPSSLSASVGDRVTITCRASQSISNYLAWYQQKPGKAPKLLIYDASSLQSGVPSRFSGSGSGTDFTLTISSLQPEDFATYYCQQYYYESITFGQGTKVEIKR"
no binding,no binding,0.007,0.01,,"Anti-cKIT Ab2 (antibody, human IgG1, kappa, V domains shown, Full-length human IgG1, kappa light chain; also called IgG control for J2) VH: QVQLVQSGAEVKKPGSSVKVSCKASGGTFSSHALSWVRQAPGQGLEWMGGIIPSFGTADYAQKFQGRVTITADESTSTAYMELSSLRSEDTAVYYCARGLYDFDYWGQGTLVTVSS VL: DIQMTQSPSSLSASVGDRVTITCRASQDISQDLAWYQQKPGKAPKLLIYDASSLQSGVPSRFSGSGSGTDFTLTISSLQPEDFAVYYCQQYYYLPSTFGQGTKVEIKR"
